Results: the supplement of paper PMC6757056
± gives the standard deviation of the averaged measurements.

B1: library; a variant is named by its letters at N, in order (parent)
chain: GCUGUCACCGGUGCUUGGUACGUUAUAUUCAGCCGGUCUGAUGAGUCUNNNNNNAGACGAAACAGC

Assays:
(6R,S)-folinic acid [1] = variants of: B1; assay: normalized RNA/DNA level without ligand (relative to sTRSVctl = 100) (log10 (% of sTRSVctl)); HEK293T overexpressing SLC46A1; higher = less ribozyme self-cleavage, higher mRNA level; conditions: without (6R,S)-folinic acid; ligand present: no
Method in brief: (§1)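 For each 6-well well, 4 µg of library plasmid encoding mCherry-linked ribozyme switches, or eGFP-linked ones in some ligand experiments, was transfected into HEK293T. Any ligand was added 1 h before transfection, and RNA was extracted with EDTA 72 h after it, then reverse-transcribed, amplified, barcoded and sequenced. RNA level was obtained by dividing RNA reads by DNA reads, normalizing to a spiked-in non-cleaving sequence or to the top sequences, then scaling and log-transforming. The top set was 25 sequences, scaling was ×100 with log10, and ≥100 DNA reads were required.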

(6R,S)-folinic acid [2] = variants of: B1; assay: normalized RNA/DNA level with ligand (relative to sTRSVctl = 100) (log10 (% of sTRSVctl)); HEK293T overexpressing SLC46A1; ligand concentration (+) RNA-Seq: 6 mM; higher = less ribozyme self-cleavage, higher mRNA level; conditions: with (6R,S)-folinic acid; ligand present: yes
Method in brief: as §1

Variant	normalized RNA/DNA level without ligand (log10) ((6R,S)-folinic acid [1])	normalized RNA/DNA level with ligand (log10) ((6R,S)-folinic acid [2])
ACCGGG	2.068 ± 0.0057	2.06 ± 0.053
ACCGGU	2.068 ± 0.0071	2.052 ± 0.015
ACCGGA	2.056 ± 0.0065	2.042 ± 0.013
ACCGGC	2.1359 ± 0.0014	2.085 ± 0.015
UCGACC	2.052 ± 0.0052	2.04 ± 0.036
UCGACG	1.867 ± 0.017	1.9974 ± 0.0011
UCGACA	1.999 ± 0.0076	2.022 ± 0.0062
CCCUGU	2.1 ± 0.0073	2.102 ± 0.016
CCCUGC	2.08 ± 0.025	2.08 ± 0.014
CCCUGA	2.088 ± 0.014	2.1 ± 0.051
CCCUGG	2.101 ± 0.017	2.02 ± 0.022
ACCUAA	2.021 ± 0.013	1.994 ± 0.018
ACCUAC	2.0248 ± 0.0018	2.02 ± 0.028
UCCUGG	1.91 ± 0.023	2.04 ± 0.023
UCCUGC	2.057 ± 0.01	2.077 ± 0.014
UCCUGA	2.025 ± 0.0055	2.045 ± 0.018
UCCUGU	1.999 ± 0.018	2.05 ± 0.043
ACGAAU	1.95 ± 0.021	2 ± 0.035
ACGAAC	2.02 ± 0.021	2.03 ± 0.044
GCGGGG	2.054 ± 0.0092	2.055 ± 0.017
GCGGGU	2.05 ± 0.045	2.017 ± 0.012
GCGGGC	1.95 ± 0.045	1.959 ± 0.017
GCGGGA	2.041 ± 0.0095	2.06 ± 0.023
UCGGAC	2.048 ± 0.0021	2.0514 ± 0.00022

Variant	normalized RNA/DNA level without ligand (log10) ((6R,S)-folinic acid [1])	normalized RNA/DNA level with ligand (log10) ((6R,S)-folinic acid [2])
ACGCCA	2.037 ± 0.012	2.02 ± 0.035
ACGCCG	2.0192 ± 0.00023	2.029 ± 0.013
ACGCCC	2.051 ± 0.0035	2.03 ± 0.059
UCCUCU	2.054 ± 0.0029	2.04 ± 0.024
UCCUCA	2.046 ± 0.013	2.07 ± 0.034
UCCUCG	1.9194 ± 0.00071	2 ± 0.029
UCCUCC	2.089 ± 0.016	2.02 ± 0.046
ACCGCU	2.07 ± 0.026	2.08 ± 0.028
ACCGCG	1.994 ± 0.015	2.05 ± 0.017
GCGCAA	1.948 ± 0.0028	1.98 ± 0.027
GCGCAU	1.9847 ± 0.0014	2 ± 0.038
GCGCAG	2 ± 0.022	2.03 ± 0.027
GCCGCU	2.048 ± 0.0044	2.04 ± 0.044
CCGCCA	2.0675 ± 0.0011	2.04 ± 0.035
CCGCCC	2.07 ± 0.025	2.04 ± 0.073
CCGCCU	2.087 ± 0.0066	2.08 ± 0.03
CCGCCG	2.06 ± 0.024	2.08 ± 0.03
GCGCGG	2.064 ± 0.0074	2.03 ± 0.031
GCGCGC	2.055 ± 0.0073	2.001 ± 0.011
GCGCGU	2.055 ± 0.011	2.04 ± 0.056
GCGCGA	2.047 ± 0.011	2.052 ± 0.018
CCGAUA	1.996 ± 0.0089	2.011 ± 0.018
CCGAUU	2.06 ± 0.051	2.053 ± 0.018
CCGAUC	2.055 ± 0.018	2.03 ± 0.03

Variant	normalized RNA/DNA level without ligand (log10) ((6R,S)-folinic acid [1])	normalized RNA/DNA level with ligand (log10) ((6R,S)-folinic acid [2])
CCGAUG	2 ± 0.023	1.99 ± 0.036
CCCGUA	2.062 ± 0.016	2.07 ± 0.055
CCCGUU	2.057 ± 0.011	2.04 ± 0.023
CCCGUC	2.05 ± 0.056	2.03 ± 0.065
CCCGUG	2.018 ± 0.016	2.012 ± 0.014
GCGGAC	1.972 ± 0.0066	2.05 ± 0.029
GCGGAU	2.021 ± 0.0026	2.04 ± 0.042
GCGGAA	1.978 ± 0.007	2.02 ± 0.048
GCCGGC	2.049 ± 0.0034	1.98 ± 0.051
GCCGGU	2.067 ± 0.01	2.03 ± 0.034
GCCGGG	2.086 ± 0.015	2.045 ± 0.003
GCCGGA	2.07 ± 0.036	2.02 ± 0.031
GCCUGA	2.036 ± 0.0063	2.07 ± 0.028
GCCUGU	2.057 ± 0.0027	2.06 ± 0.038
GCCUGG	2.001 ± 0.011	2.03 ± 0.034
GCCUGC	2.052 ± 0.01	2.046 ± 0.013
UCCUUC	2.084 ± 0.002	2.05 ± 0.035
UCCUUU	2.07 ± 0.021	2.08 ± 0.032
UCCUUA	2.015 ± 0.013	2.05 ± 0.0049
CCGCUU	2.04 ± 0.024	2.0508 ± 0.0014
CCGCUC	2.112 ± 0.0092	2.09 ± 0.081
CCGCUA	2.01 ± 0.019	2.02 ± 0.043
CCGCUG	2.047 ± 0.0097	2.067 ± 0.012
GCGCCU	2.1 ± 0.023	2.09 ± 0.047

Variant	normalized RNA/DNA level without ligand (log10) ((6R,S)-folinic acid [1])	normalized RNA/DNA level with ligand (log10) ((6R,S)-folinic acid [2])
GCGCCA	2.08 ± 0.023	2.03 ± 0.03
GCGCCC	2.07 ± 0.023	2.04 ± 0.036
GCGCCG	2.059 ± 0.0092	2.046 ± 0.0097
UCGCAA	1.973 ± 0.017	1.998 ± 0.018
UCGCAG	1.921 ± 0.0076	2.01 ± 0.024
UCGCAC	2.04 ± 0.025	2.03 ± 0.048
ACCUUC	2.038 ± 0.014	2.04 ± 0.045
ACCUUA	2.045 ± 0.009	2.041 ± 0.017
ACCUUG	1.953 ± 0.0055	1.999 ± 0.011
ACCUUU	2.071 ± 0.0086	2.02 ± 0.021
CCGAAU	2.002 ± 0.013	2.019 ± 0.018
CCGAAA	2.0005 ± 0.0006	2 ± 0.016
CCGAAC	2.035 ± 0.0081	2.02 ± 0.049
UCCGCU	2.068 ± 0.01	2.042 ± 0.015
UCGCUA	2.021 ± 0.015	2.07 ± 0.035
UCGCUC	2.04 ± 0.028	2.04 ± 0.059
UCGCUG	2.01 ± 0.021	2.06 ± 0.037
UCGCUU	2.033 ± 0.019	2.01 ± 0.081
GCGAGG	1.98 ± 0.023	2.05 ± 0.046
GCGAGU	1.99 ± 0.04	2.03 ± 0.051
CCCGCU	2.109 ± 0.014	2.08 ± 0.068
ACGAGA	1.968 ± 0.011	2.03 ± 0.028
ACGAGG	1.86 ± 0.034	1.995 ± 0.011
ACGAGC	2.005 ± 0.012	2.041 ± 0.019

Variant	normalized RNA/DNA level without ligand (log10) ((6R,S)-folinic acid [1])	normalized RNA/DNA level with ligand (log10) ((6R,S)-folinic acid [2])
ACGAGU	2.027 ± 0.0034	2.028 ± 0.0065
ACCUCU	2.019 ± 0.0056	2.014 ± 0.015
ACCUCA	2.047 ± 0.0058	2.07 ± 0.049
ACCUCC	2.08 ± 0.0086	2.01 ± 0.028
ACCUCG	2.028 ± 0.0069	2.074 ± 0.0045
ACCUGA	1.999 ± 0.003	2.03 ± 0.029
ACCUGC	2.07 ± 0.016	2.04 ± 0.044
ACCUGU	2.01 ± 0.025	2 ± 0.024
ACCUGG	1.9783 ± 0.00064	2.04 ± 0.034
CCCUAC	2.07 ± 0.025	2.085 ± 0.019
CCCUAU	2.0351 ± 0.0014	2.05 ± 0.038
CCCUAG	2.018 ± 0.004	2.045 ± 0.0096
CCCUAA	2.0445 ± 0.00066	2.039 ± 0.015
ACGGCC	2.117 ± 0.009	2.06 ± 0.056
ACGGCU	2.048 ± 0.014	2.04 ± 0.044
ACGGCG	2.015 ± 0.0037	2.0489 ± 0.00014
UCCUAU	1.9805 ± 0.00094	2.03 ± 0.034
UCCUAC	2.024 ± 0.015	2.05 ± 0.026
UCCUAA	1.981 ± 0.0064	2.018 ± 0.014
UCCUAG	1.849 ± 0.004	2.009 ± 0.0087
